Data taken from US20180243434A1 (INSERM INSTITUT NATIONAL DE LA SANT ET DE LA RECHERCHE M …, published 2018).

T1: endogenous nectin-4 on SUM190 cells (human, UniProt Q96NY8 32-510)
T1 sequence (looked up): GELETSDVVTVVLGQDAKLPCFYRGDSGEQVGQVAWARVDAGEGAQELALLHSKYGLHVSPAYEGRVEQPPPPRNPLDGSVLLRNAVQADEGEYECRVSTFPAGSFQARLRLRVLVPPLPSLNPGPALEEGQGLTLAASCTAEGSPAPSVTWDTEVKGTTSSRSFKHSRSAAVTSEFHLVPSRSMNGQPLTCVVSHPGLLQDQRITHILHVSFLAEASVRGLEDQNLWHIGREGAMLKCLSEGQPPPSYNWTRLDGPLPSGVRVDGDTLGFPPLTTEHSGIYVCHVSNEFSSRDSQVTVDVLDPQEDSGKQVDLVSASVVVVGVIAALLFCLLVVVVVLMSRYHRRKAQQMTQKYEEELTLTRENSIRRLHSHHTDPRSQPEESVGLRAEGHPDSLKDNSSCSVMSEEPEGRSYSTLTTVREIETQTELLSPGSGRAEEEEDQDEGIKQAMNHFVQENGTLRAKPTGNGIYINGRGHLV

T2: N-terminal Flag-tagged nectin4 expressed in MDA-MB-231 cells (human, UniProt Q96NY8 32-510)
T2 sequence (looked up): T1 sequence (looked up)

T3: nectin1V-Fc (comprising only the IgV domain) (UniProt Q15223 31-143, limits assumed)
T3 construct: domain: IgV domain; not shown: Fc part
T3 sequence (looked up): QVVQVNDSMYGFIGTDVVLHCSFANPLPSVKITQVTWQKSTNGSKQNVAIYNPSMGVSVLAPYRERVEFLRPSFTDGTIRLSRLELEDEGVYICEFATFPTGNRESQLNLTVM

B1: N41mab-vcMMAE (antibody, V domains shown)
VH: QVQLKQSGPGLVQPSQSLSITCTVSGFSLTNYGVHWVRQSPGKGLEWLGVIWSGGSTDYNAAFISRLSISKDTSKSQVFFKMNSLQADDTAIYYCARELIHAMDNWGQGTSVTVSS
VL: DIQMTQSPASLSVSVGETVTITCRASENIYSNLAWYQQKQGNSPQLLVFAATNLADGVPSRFSGSGSGTQYSLKINSLQSEDFGTYYCQHFWGTPTFGGGTKLEIK
modifications: monomethyl auristatin-E (MMAE) conjugated through the MC-Val-Cit-PAB linker; drug to antibody ratio 4.73; sites not stated
B2: N41mab antibody (antibody, V domains shown)
VH: B1 VH
VL: B1 VL
notes: Mouse monoclonal antibody from a hybridoma (mice immunized with nectin4 V-Fc); also called mab1; Mab1

What was measured:
[1] = target: T1, endogenous nectin-4 on SUM190 cells; assay: cell-based or functional assay
[2] = target: T2, N-terminal Flag-tagged nectin4 …; assay: cell-based or functional assay
[3] = target: T3, nectin1V-Fc (comprising only the IgV …); assay: ELISA, plate coated with 5 ug/ml nectin1V-Fc
Method: A: Detection by ELISA. Ninety-six-well trays were coated with 5 ug/ml of nectin4V-Fc or nectin1V-Fc (comprising only the IgV domain) overnight at +4° C. as indicated. N41mab recognizes the nectin4V-Fc (bar 3) not the nectin1V-Fc (bar 1).
A sandwich enzyme-linked immunosorbent assay was used to control specificity of N41mab antibody and to perform competition assays between mabs. Ninety-six-well trays were coated with 5 μg/ml of nectin4V-Fc or nectin1V-Fc (comprising only the IgV domain) overnight at +4° C. After washes and saturation with PBS 1% BSA cells were incubated overnight with 0.625 μg/ml of N41mab. Peroxydase conjugated goat anti mouse antibody was incubated 2 h at 25° C. (Pierce). In the case of competition, binding of peroxidase conjugated N41mab was measured in the presence of vairable concentration of “cold” mab. One hundred ul of peroxidase substrate was added (One Step ABST, Pierce), and OD was read at 405 nm.
A sandwich enzyme-linked immunosorbent assay was used to control the specificity of the N41mab antibody. Ninety-six-well trays were coated with 5 μg/ml of nectin4V-Fc or nectin1V-Fc (comprising only the IgV domain) overnight at +4° C. After washes and saturation with PBS 1% BSA cells were incubated overnight with 0.625 μg/ml of mab1/N41mab. […] One hundred μ1 of peroxidase substrate was added (One Step ABST, Pierce), and OD was read at 405 nm.

Binder	IC50 (cell growth, alamarBlue) [1] [ng/mL]	IC50 (cell growth, alamarBlue) [2] [ng/mL]	binding result [3]
B1	4	2	–
B2	–	–	no binding (tested: 0.625 µg/ml)
